Patent US20040133357A1 (ABMAXIS, published 2004)

Each binder was assayed against T1, purified recombinant human VEGF165 (human, UniProt P15692 27-191, glycosylated) (assay: SPR (BIAcore), purified scFv over VEGF immobilized on CM5 chip, 25 C).
T1 construct: mature; Bought from Calbiochem; also called VEGF protein (Calbiochem); homodimeric VEGF protein
Description: (§1) Antibody fragments in the format of single chain were expressed as described below and purified. The measurement was done by measuring the change of SPR units (y-axis) vs time (x-axis) when a purified antibody binds its antigen (VEGF) immobilized on the CM5 biochip at 25° C. Kd values were calculated by the […].
(§2) BIAcore Biosensor Assay was used to determine antibody affinity. VEGF protein (purchased from Calbiochem) was coupled to a CM-5 biosensor ship by amine coupling. After immobilization, CM-5 chips with 200 to 1000 response unites of VEGF were kept at 4° C. before use. All experiments were performed at 25° C. or 35° C. Each sample in PBS buffer was injected over VEGF surface at a flow rate of 20 ul/min using Biacore 1000 (Biacore AB, Sweden), and bound antibodies were removed from chip by 10 ul of glycine-HCl, PH 1.5 at the end of each cycle. Each sensorgram was recorded and normalized to a PBS base line.

T1 sequence (P15692 other isoform, or with tags, fused parts or gaps limits assumed): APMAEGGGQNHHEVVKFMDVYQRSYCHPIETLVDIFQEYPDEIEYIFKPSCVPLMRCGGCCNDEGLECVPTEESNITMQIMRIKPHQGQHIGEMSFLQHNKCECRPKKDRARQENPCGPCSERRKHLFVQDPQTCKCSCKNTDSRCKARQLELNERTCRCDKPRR

Binder | Kd | hAB1 Kd/Variant Kd | koff | kon
hAB9 (scFv, Single chain format; not shown: HA-His6 tag at C-terminus) scFv: EVQLVQSGGGVVQPGGSLRLSCAASGYTFTNYGMNWVRQAPGKGLEWVGWINTYTGEPTYAADFKRRFTFSLDTSKSTAYLQMNSLRAEDTAVYYCAKYPYYYGRSHWYFDVWGQGTLVTVSSGGGGSGGGGSGGGGSDIQLTQSPSSLSASAGDRVTISCSASQDISNYLNWYQQKPGKAPQLLIYFTSSLHSGVPSRFSGSGSGTDFTLTISSLQPEDFATYYCQQYSTVPWTFGQGTKVEIK | 4.9 nM | 2.7 | 1.4e-05 s⁻¹ | 2900 M⁻¹ s⁻¹
hAB10 (scFv, Single chain format; not shown: HA-His6 tag at C-terminus) scFv: EVQLVESGGGLVQPGGSLRLSCAASGYTFTNYGMNWVRQAPGKGLEWVGWINTYTGEPTYAADFKRRFTFSLDTSKSTAYLQMNSLRAEDTAVYYCAKYPYYYGTSHWYFDVWGQGTLVTVSSGGGGSGGGGSGGGGSDIQMTQSPSSLSASVGDRVTITCSASQDISNYLNWYQQKPGKAPKVLIYFTSSLHSGVPSRFSGSGSGTDFTLTISSLQPEDFATYYCQQYSTVPWTFGQGTKVEIK | 2.2 nM | 6.3 | 3e-06 s⁻¹ | 1100 M⁻¹ s⁻¹

The remaining lines, values ahead:

Kd | hAB1 Kd/Variant Kd | koff | kon | Binder
5.9 nM | 2.2 | 7.2e-05 s⁻¹ | 12200 M⁻¹ s⁻¹ | hAB5 (scFv, Single chain format; not shown: HA-His6 tag at C-terminus) scFv: EVQLVQSGGGVVQPGGTLRLTCAASGYTFTNYGMNWVRQAPGKGLEWVGWINTYTGEPTYAADFKRRVTFSLDTSKSTAYLQMNSLRAEDTAVYYCAKYPHYYGSSHWYFDVWGQGTLVTVSSGGGGSGGGGSGGGGSDIQMTQSPSSLSASVGDRVTITCSASQDISNYLNWYQQKPGKAPKVLIYFTSSLHSGVPSRFSGSGSGTDFTLTISSLQPEDFATYYCQQYSTVPWTFGQGTKVEIK
1.5 nM | 9.2 | 3e-06 s⁻¹ | 2300 M⁻¹ s⁻¹ | hAB12 (scFv, Single chain format; not shown: HA-His6 tag at C-terminus) scFv: EVQLVESGGGLVQPGGSLRLSCAASGYTFTNYGMNWVRQAPGKGLEWVGWINTYTGEPTYAADFKRRFTFSLDTSKSTAYLQMNSLRAEDTAVYYCAKYPYYYGRSHWYFDVWGQGTLVTVSSGGGGSGGGGSGGGGSDIQMTQSPSSLSASVGDRVTITCSASQDISNYLNWYQQKPGKAPKVLIYFTSSLHSGVPSRFSGSGSGTDFTLTISSLQPEDFATYYCQQYSTVPWTFGQGTKVEIK
5.4 nM | 2.6 | 8.7e-05 s⁻¹ | 15900 M⁻¹ s⁻¹ | hAB11 (scFv, Single chain format; not shown: HA-His6 tag at C-terminus) scFv: EVQLVESGGGLVQPGGSLRLSCAASGYTFTNYGMNWVRQAPGKGLEWVGWINTYTGEPTYAADFKRRFTFSLDTSKSTAYLQMNSLRAEDTAVYYCAKYPHYYGRSHWYFDVWGQGTLVTVSSGGGGSGGGGSGGGGSDIQMTQSPSSLSASVGDRVTITCSASQDISNYLNWYQQKPGKAPKVLIYFTSSLHSGVPSRFSGSGSGTDFTLTISSLQPEDFATYYCQQYSTVPWTFGQGTKVEIK

These binders were tested against T1, purified recombinant human VEGF165 (assay: SPR (BIAcore), purified scFv over VEGF immobilized on CM5 chip, 35 C).
Description: as §1, with “35°” for “25°”
as §2

Binder | Kd | hAB1 Kd/Variant Kd | koff | kon
hAB35 (scFv, Single chain format; not shown: HA-His6 tag at C-terminus) scFv: EVQLVQSGGGVVQPGGSLRLSCAASGYDFTHFGLNWIRQAPGKGPEWVGWINTYTGEPTYAQDFKRRVTFSLDTSKSTAYLQLNSLRAEDTAVYYCAKYPYYYGRSHWYFDVWGQGTLVTVSSGGGGSGGGGSGGGGSDIVMTQSPSTLSASPGERATITCNASQSIGSYLAWYQQKPGQAPKVLIYGASNLASGVPSRFSGSRSGTDFTLTISSLQPEDFAVYYCQQYNSTPWTFGGGTKLEIK | 0.7 nM | 59.1 | 6.2e-05 s⁻¹ | 82800 M⁻¹ s⁻¹
hAB36 (scFv, Single chain format; not shown: HA-His6 tag at C-terminus) scFv: EVQLVQSGGGVVQPGGSLRLSCAASGYDLSHYGLNWIRQAPGKGPEWVGWINTYTGEPTYAPDFTRRVTFSLDTSKSTAYLQLNSLRAEDTAVYYCAKYPYYYGRSHWYFDVWGQGTLVTVSSGGGGSGGGGSGGGGSDIVMTQSPSTLSASPGERATITCNASQSIGSYLAWYQQKPGQAPKVLIYGASNLASGVPSRFSGSRSGTDFTLTISSLQPEDFAVYYCQQYNSTPWTFGGGTKLEIK | 0.7 nM | 59.1 | 3.7e-05 s⁻¹ | 47500 M⁻¹ s⁻¹
hAB38 (scFv, Single chain format; not shown: HA-His6 tag at C-terminus) scFv: EVQLVQSGGGVVQPGGSLRLSCAASGYNFSHFGLNWLRQAPGKGPEWVGWINTYTGEPTYAPEFKRRVTFSLDTSKSTAYLQLNSLRAEDTAVYYCAKYPYYYGRSHWYFDVWGQGTLVTVSSGGGGSGGGGSGGGGSDIVMTQSPSTLSASPGERATITCNASQSIGSYLAWYQQKPGQAPKVLIYGASNLASGVPSRFSGSRSGTDFTLTISSLQPEDFAVYYCQQYNSTPWTFGGGTKLEIK | 0.9 nM | 46 | 4.8e-05 s⁻¹ | 50000 M⁻¹ s⁻¹
hAB14 (scFv, Single chain format; not shown: HA-His6 tag at C-terminus) scFv: EVQLVQSGGGVVQPGGSLRLSCAASGYTFTNYGMNWIRQAPGKGLEWVGWINTYTGEPTYAADFKRRVTFSLDTSKSTAYLQLNSLRAEDTAVYYCAKYPYYYGRSHWYFDVWGQGTLVTVSSGGGGSGGGGSGGGGSAIRMTQSPSSVSASVGDTVTIACRASQAIRNDLTWYQQKPGTAPKLLIYGATTLQSGVPSRFSGSGSGTDFTLTISSLQPEDFATYYCQQSSTTPWTFGQGTKVDIK | 3.6 nM | 11.5 | 6.2e-05 s⁻¹ | 17100 M⁻¹ s⁻¹
hAB7 (scFv, Single chain format; not shown: HA-His6 tag at C-terminus) scFv: EVQLVQSGGGVVQPGGSLRLSCAASGYTFTNYGMNWVRQAPGKGLEWVGWINTYTGEPTYAADFKRRFTFSLDTSKSTAYLQMNSLRAEDTAVYYCAKYPYYYGRSHWYFDVWGQGTLVTVSSGGGGSGGGGSGGGGSDIQMTQSPSSLSASVGDRVTITCSASQDISNYLNWYQQKPGKAPKVLIYFTSSLHSGVPSRFSGSGSGTDFTLTISSLQPEDFATYYCQQYSTVPWTFGQGTKVEIK | 1.1 nM | 37.6 | 9e-06 s⁻¹ | 8500 M⁻¹ s⁻¹
hAB8 (scFv, Single chain format; not shown: HA-His6 tag at C-terminus) scFv: EVQLVQSGGGVVQPGGSLRLSCAASGYTFTNYGMNWIRQAPGKGLEWVGWINTYTGEPTYAADFKRRVTFSLDTSKSTAYLQLNSLRAEDTAVYYCAKYPYYYGRSHWYFDVWGQGTLVTVSSGGGGSGGGGSGGGGSDIQMTQSPSSLSASVGDRVTITCSASQDISNYLNWYQQKPGKAPKVLIYFTSSLHSGVPSRFSGSGSGTDFTLTISSLQPEDFATYYCQQYSTVPWTFGQGTKVEIK | 1.1 nM | 37.6 | 1.7e-05 s⁻¹ | 15800 M⁻¹ s⁻¹

The next lines start with the values.

Kd | hAB1 Kd/Variant Kd | koff | kon | Binder
1.6 nM | 25.9 | 4.7e-05 s⁻¹ | 29300 M⁻¹ s⁻¹ | hAB16 (scFv, Single chain format; not shown: HA-His6 tag at C-terminus) scFv: EVQLVQSGGGVVQPGGSLRLSCAASGYTFTNYGMNWIRQAPGKGLEWVGWINTYTGEPTYAADFKRRVTFSLDTSKSTAYLQLNSLRAEDTAVYYCAKYPYYYGRSHWYFDVWGQGTLVTVSSGGGGSGGGGSGGGGSDIVMTQSPSTLSASPGERATITCNASQSIGSYLAWYQQKPGQAPKVLIYGASNLASGVPSRFSGSRSGTDFTLTISSLQPEDFAVYYCQQYNSTPWTFGGGTKLEIK
0.8 nM | 51.8 | 4.4e-05 s⁻¹ | 57300 M⁻¹ s⁻¹ | hAB37 (scFv, Single chain format; not shown: HA-His6 tag at C-terminus) scFv: EVQLVQSGGGVVQPGGSLRLSCAASGYNFSHFGLNWLRQAPGKGLEWVGWINTYNGETTYAPDFKRRVTFSLDTSKSTAYLQLNSLRAEDTAVYYCAKYPYYYGRSHWYFDVWGQGTLVTVSSGGGGSGGGGSGGGGSDIVMTQSPSTLSASPGERATITCNASQSIGSYLAWYQQKPGQAPKVLIYGASNLASGVPSRFSGSRSGTDFTLTISSLQPEDFAVYYCQQYNSTPWTFGGGTKLEIK
1.8 nM | 23 | 4.8e-05 s⁻¹ | 28400 M⁻¹ s⁻¹ | hAB39 (scFv, Single chain format; not shown: HA-His6 tag at C-terminus) scFv: EVQLVQSGGGVVQPGGSLRLSCAASGYDFTHFGLNWVRQAPGKGLEWVGWVNTYTGETTYAHEFKRRVTFSLDTSKSTAYLQLNSLRAEDTAVYYCAKYPYYYGRSHWYFDVWGQGTLVTVSSGGGGSGGGGSGGGGSDIVMTQSPSTLSASPGERATITCNASQSIGSYLAWYQQKPGQAPKVLIYGASNLASGVPSRFSGSRSGTDFTLTISSLQPEDFAVYYCQQYNSTPWTFGGGTKLEIK
3.7 nM | 11.2 | 8.6e-05 s⁻¹ | 23400 M⁻¹ s⁻¹ | hAB15 (scFv, Single chain format; not shown: HA-His6 tag at C-terminus) scFv: EVQLVQSGGGVVQPGGSLRLSCAASGYTFTNYGMNWIRQAPGKGLEWVGWINTYTGEPTYAADFKRRVTFSLDTSKSTAYLQLNSLRAEDTAVYYCAKYPYYYGRSHWYFDVWGQGTLVTVSSGGGGSGGGGSGGGGSDIVMTQSPSTLSASPGERATITCHASQSISTYLAWYQQKPGQAPRVLIYGASNLASGVPNRFSGSGSGTDFTLTISSLQPEDFAVYYCQQYNSAPWTFGGGTKVEIK
